According to paper doi:10.1101/2021.08.16.456439:

Tests used:
[1] = biological target: CyPet-NS1 (influenza virus) (UniProt P03496); test: FRET or BRET
[2] = biological target: CyPet-Ubc9 (UniProt P63279); test: FRET or BRET
UniProt P63279, sequence (P63279 whole entry): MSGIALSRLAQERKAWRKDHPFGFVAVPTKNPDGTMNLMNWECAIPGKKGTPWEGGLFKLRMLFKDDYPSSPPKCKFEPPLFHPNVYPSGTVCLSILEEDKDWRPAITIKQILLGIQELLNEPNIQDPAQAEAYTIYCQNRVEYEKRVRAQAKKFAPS

Substance	Kd [1] [µM]	Kd [2] [µM]
YPet-PIAS1 (from UniProt O75925 1-651) (enzyme)	2.96	–
YPet-NS1 (from UniProt P03496 1-230) (natural protein)	–	4.84
